# Results reported in patent US20130288923, “Nucleotide-Based Probes and Methods for the Detection and Quantification of Macromolecules and Other Analytes” (THE REGENTS OF THE UNIVERSITY OF CALIFORNIA, published 2013).
# Molecular target: TATA binding protein (TBP) (UniProt P20226 P20226:1-339)
# Assay: square wave voltammetry; nM detection in buffer and in 250 ug/mL HeLa nuclear extract
# Conditions: tags: recombinantly expressed and purified (Bonham 2009); label: 5'-C6-thiol (gold electrode), internal methylene blue; double stem-loop / single stem-loop switch containing TBP recognition duplex
# Experimental: The ability of the TBP transcription factor electrochemical probe to function in HeLa nuclear cell extract was also tested (FIG. 14(b). The probe directed against TBP was titrated with its target protein against a background of 250 μg/mL crude HeLa nuclear extract (FIG. 14(b), producing a binding curve similar to that observed in buffer (FIG. 14(b). This binding curve was slightly offset from the curve obtained in buffer. Without being limited to any particular theory, a possible explanation for this shift was that this was a contribution from the endogenous TBP present in cell extract. The TBP transcription factor electrochemical probe provided the convenient quantification of transcription factors in cell extract. The sensor's response in buffer, cell extract and, finally, extract to which a large excess of TBP had been added were measured. These measurements were used to calculate the concentration of TF in the sample, C, via the following relationship: […]
# TATA binding protein (TBP), sequence (P20226 whole entry, one chain of several): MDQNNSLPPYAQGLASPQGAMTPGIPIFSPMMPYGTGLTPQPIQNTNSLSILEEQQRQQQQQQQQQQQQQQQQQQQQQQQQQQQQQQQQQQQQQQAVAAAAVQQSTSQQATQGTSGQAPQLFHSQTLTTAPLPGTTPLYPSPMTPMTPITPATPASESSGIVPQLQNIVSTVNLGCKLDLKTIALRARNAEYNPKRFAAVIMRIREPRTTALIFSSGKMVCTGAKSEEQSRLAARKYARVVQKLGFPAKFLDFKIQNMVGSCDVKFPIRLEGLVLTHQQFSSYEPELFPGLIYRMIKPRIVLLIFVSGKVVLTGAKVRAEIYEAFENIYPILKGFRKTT
binder,measurement,value
GAATAGGTTCCTATAAAAGGTTGGTTTTATAAACCTATCCTATTC (structured_DNA) [TBP electrochemical probe],binding result,binds
